# B1: Drosophila I'm Not Dead Yet (INDY) (natural protein)
# chain: not shown
# notes: I'm Not Dead Yet (INDY), Drosophila melanogaster, full-length gene, GenBank AF509505.1; 590 amino acids; Eluted from the anti-GFP resin by overnight thrombin cleavage; residues of the thrombin site may be left at the C-terminus; Regions of poor density were modelled as polyalanine in the deposited structures; also called WT INDY; apo INDY; not shown: eGFP, C-terminal, cleaved; His10, C-terminal, …
# Biological target: the molecule itself
# Experiment: cryo-EM structure; purified INDY in MSP1 nanodiscs (E. coli polar lipids); apo at pH 6 and pH 8, with 5 mM citrate, or with 150 uM DIDS; homodimer in all seven structures
protein,measurement,value
B1,stoichiometry N,2

# — paper PMC11782487, “Cryo-EM structures reveal the H^+/citrate symport mechanism of Drosophila INDY” (Life Science Alliance, 2025)
